Experimental data as given in the Human Domainome abundance scans (Beltran et al. 2025).
± gives the uncertainty stated by the source.

Experiment: abundance fitness (aPCA) (normalised: wild type 0, dead -1); higher = more abundant; growth selection in yeast, the domain comes from the species named
Conditions: Homo sapiens

Substance | abundance fitness
E3 ubiquitin-protein ligase NEDD4-like H222Y, Q96PU5 | -0.171 ± 0.11
E3 ubiquitin-protein ligase NEDD4-like E200M, Q96PU5 | -0.152 ± 0.074
E3 ubiquitin-protein ligase NEDD4-like H214I, Q96PU5 | -0.005 ± 0.078
E3 ubiquitin-protein ligase NEDD4-like T218C, Q96PU5 | -0.031 ± 0.076
E3 ubiquitin-protein ligase NEDD4-like Q187A, Q96PU5 | -0.256 ± 0.058
E3 ubiquitin-protein ligase NEDD4-like P224S, Q96PU5 | -0.711 ± 0.059
E3 ubiquitin-protein ligase NEDD4-like E200C, Q96PU5 | -0.092 ± 0.08
E3 ubiquitin-protein ligase NEDD4-like Y211Q, Q96PU5 | -0.704 ± 0.085
E3 ubiquitin-protein ligase NEDD4-like L226M, Q96PU5 | 0.011 ± 0.093
E3 ubiquitin-protein ligase NEDD4-like P193C, Q96PU5 | 0.042 ± 0.095
E3 ubiquitin-protein ligase NEDD4-like W221L, Q96PU5 | -0.031 ± 0.054
E3 ubiquitin-protein ligase NEDD4-like Q220R, Q96PU5 | -0.557 ± 0.072
E3 ubiquitin-protein ligase NEDD4-like Q187T, Q96PU5 | 0.016 ± 0.09
E3 ubiquitin-protein ligase NEDD4-like N205M, Q96PU5 | -0.109 ± 0.055
E3 ubiquitin-protein ligase NEDD4-like P224N, Q96PU5 | -1.15 ± 0.18
E3 ubiquitin-protein ligase NEDD4-like N213C, Q96PU5 | -0.042 ± 0.14
E3 ubiquitin-protein ligase NEDD4-like E201W, Q96PU5 | -0.423 ± 0.065
E3 ubiquitin-protein ligase NEDD4-like L226F, Q96PU5 | -0.079 ± 0.1
E3 ubiquitin-protein ligase NEDD4-like S230R, Q96PU5 | -0.095 ± 0.066
E3 ubiquitin-protein ligase NEDD4-like G198A, Q96PU5 | -0.032 ± 0.069
E3 ubiquitin-protein ligase NEDD4-like P224M, Q96PU5 | -0.796 ± 0.11
E3 ubiquitin-protein ligase NEDD4-like S231C, Q96PU5 | -0.142 ± 0.09
E3 ubiquitin-protein ligase NEDD4-like Y210V, Q96PU5 | -0.356 ± 0.069
E3 ubiquitin-protein ligase NEDD4-like W199A, Q96PU5 | -0.535 ± 0.086

Substance | abundance fitness
E3 ubiquitin-protein ligase NEDD4-like T218I, Q96PU5 | -0.118 ± 0.096
E3 ubiquitin-protein ligase NEDD4-like G198Q, Q96PU5 | -0.075 ± 0.06
E3 ubiquitin-protein ligase NEDD4-like P192K, Q96PU5 | -0.086 ± 0.095
E3 ubiquitin-protein ligase NEDD4-like W221A, Q96PU5 | -0.035 ± 0.077
E3 ubiquitin-protein ligase NEDD4-like T209V, Q96PU5 | -0.079 ± 0.067
E3 ubiquitin-protein ligase NEDD4-like T209E, Q96PU5 | -0.31 ± 0.078
E3 ubiquitin-protein ligase NEDD4-like Y210T, Q96PU5 | -0.159 ± 0.072
E3 ubiquitin-protein ligase NEDD4-like T209G, Q96PU5 | -0.305 ± 0.062
E3 ubiquitin-protein ligase NEDD4-like M227T, Q96PU5 | -0.022 ± 0.089
E3 ubiquitin-protein ligase NEDD4-like Y211P, Q96PU5 | -0.548 ± 0.087
E3 ubiquitin-protein ligase NEDD4-like N205P, Q96PU5 | -0.012 ± 0.093
E3 ubiquitin-protein ligase NEDD4-like E189N, Q96PU5 | 0.222 ± 0.095
E3 ubiquitin-protein ligase NEDD4-like S225V, Q96PU5 | -0.018 ± 0.076
E3 ubiquitin-protein ligase NEDD4-like P196M, Q96PU5 | -0.011 ± 0.071
E3 ubiquitin-protein ligase NEDD4-like S231H, Q96PU5 | -0.331 ± 0.13
E3 ubiquitin-protein ligase NEDD4-like P224A, Q96PU5 | -0.765 ± 0.08
E3 ubiquitin-protein ligase NEDD4-like H222W, Q96PU5 | -0.218 ± 0.071
E3 ubiquitin-protein ligase NEDD4-like Q185P, Q96PU5 | -0.539 ± 0.12
E3 ubiquitin-protein ligase NEDD4-like E232W, Q96PU5 | -0.98 ± 0.33
E3 ubiquitin-protein ligase NEDD4-like E189R, Q96PU5 | -0.23 ± 0.055
E3 ubiquitin-protein ligase NEDD4-like N216T, Q96PU5 | 0.127 ± 0.086
E3 ubiquitin-protein ligase NEDD4-like K202C, Q96PU5 | -0.253 ± 0.097
E3 ubiquitin-protein ligase NEDD4-like E189Y, Q96PU5 | 0.16 ± 0.1
E3 ubiquitin-protein ligase NEDD4-like R223A, Q96PU5 | -0.175 ± 0.066

Substance | abundance fitness
E3 ubiquitin-protein ligase NEDD4-like R223K, Q96PU5 | 0.013 ± 0.1
E3 ubiquitin-protein ligase NEDD4-like S230T, Q96PU5 | -0.051 ± 0.067
E3 ubiquitin-protein ligase NEDD4-like Y210A, Q96PU5 | -0.379 ± 0.067
E3 ubiquitin-protein ligase NEDD4-like N213W, Q96PU5 | -0.753 ± 0.1
E3 ubiquitin-protein ligase NEDD4-like R208L, Q96PU5 | -0.128 ± 0.069
E3 ubiquitin-protein ligase NEDD4-like E201V, Q96PU5 | -0.14 ± 0.052
E3 ubiquitin-protein ligase NEDD4-like T209N, Q96PU5 | -0.095 ± 0.092
E3 ubiquitin-protein ligase NEDD4-like N205C, Q96PU5 | -0.142 ± 0.059
E3 ubiquitin-protein ligase NEDD4-like T219M, Q96PU5 | -0.285 ± 0.091
E3 ubiquitin-protein ligase NEDD4-like E189L, Q96PU5 | -0.278 ± 0.065
E3 ubiquitin-protein ligase NEDD4-like L190S, Q96PU5 | -0.02 ± 0.056
E3 ubiquitin-protein ligase NEDD4-like E189S, Q96PU5 | -0.136 ± 0.065
E3 ubiquitin-protein ligase NEDD4-like S184A, Q96PU5 | -0.461 ± 0.096
E3 ubiquitin-protein ligase NEDD4-like W221F, Q96PU5 | -0.04 ± 0.084
E3 ubiquitin-protein ligase NEDD4-like Q187G, Q96PU5 | -0.799 ± 0.07
E3 ubiquitin-protein ligase NEDD4-like E188V, Q96PU5 | 0.297 ± 0.2
E3 ubiquitin-protein ligase NEDD4-like W199C, Q96PU5 | -0.25 ± 0.098
E3 ubiquitin-protein ligase NEDD4-like N205I, Q96PU5 | -0.111 ± 0.098
E3 ubiquitin-protein ligase NEDD4-like K202Y, Q96PU5 | -0.289 ± 0.11
E3 ubiquitin-protein ligase NEDD4-like D228C, Q96PU5 | -0.332 ± 0.067
E3 ubiquitin-protein ligase NEDD4-like N213D, Q96PU5 | -0.206 ± 0.075
E3 ubiquitin-protein ligase NEDD4-like P191H, Q96PU5 | -0.072 ± 0.073
E3 ubiquitin-protein ligase NEDD4-like Q185K, Q96PU5 | -0.398 ± 0.12
E3 ubiquitin-protein ligase NEDD4-like M227Y, Q96PU5 | -0.184 ± 0.082

Substance | abundance fitness
E3 ubiquitin-protein ligase NEDD4-like Q187E, Q96PU5 | -0.767 ± 0.079
E3 ubiquitin-protein ligase NEDD4-like H186V, Q96PU5 | -0.045 ± 0.058
E3 ubiquitin-protein ligase NEDD4-like N216L, Q96PU5 | -0.001 ± 0.056
E3 ubiquitin-protein ligase NEDD4-like N216Q, Q96PU5 | -0.343 ± 0.1
E3 ubiquitin-protein ligase NEDD4-like N213S, Q96PU5 | 0.213 ± 0.12
E3 ubiquitin-protein ligase NEDD4-like N215E, Q96PU5 | -0.086 ± 0.077
E3 ubiquitin-protein ligase NEDD4-like W221I, Q96PU5 | -0.192 ± 0.12
E3 ubiquitin-protein ligase NEDD4-like T219R, Q96PU5 | -0.3 ± 0.057
E3 ubiquitin-protein ligase NEDD4-like N216F, Q96PU5 | 0.052 ± 0.091
E3 ubiquitin-protein ligase NEDD4-like D204I, Q96PU5 | -1.04 ± 0.17
E3 ubiquitin-protein ligase NEDD4-like V229S, Q96PU5 | 0.033 ± 0.067
E3 ubiquitin-protein ligase NEDD4-like D228A, Q96PU5 | -0.091 ± 0.07
E3 ubiquitin-protein ligase NEDD4-like H214P, Q96PU5 | -0.063 ± 0.077
E3 ubiquitin-protein ligase NEDD4-like N205H, Q96PU5 | -0.062 ± 0.11
E3 ubiquitin-protein ligase NEDD4-like P191N, Q96PU5 | 0.051 ± 0.064
E3 ubiquitin-protein ligase NEDD4-like P191D, Q96PU5 | -0.086 ± 0.11
E3 ubiquitin-protein ligase NEDD4-like W221H, Q96PU5 | -0.243 ± 0.1
E3 ubiquitin-protein ligase NEDD4-like V203C, Q96PU5 | -0.066 ± 0.097
E3 ubiquitin-protein ligase NEDD4-like N216G, Q96PU5 | 0.127 ± 0.052
E3 ubiquitin-protein ligase NEDD4-like W199D, Q96PU5 | -0.744 ± 0.1
E3 ubiquitin-protein ligase NEDD4-like R217I, Q96PU5 | -0.267 ± 0.084
E3 ubiquitin-protein ligase NEDD4-like W199Y, Q96PU5 | -0.403 ± 0.14
E3 ubiquitin-protein ligase NEDD4-like R208W, Q96PU5 | -0.408 ± 0.083
